Test [1] deals with T1, HLA-DR1 (DR1 alpha/beta; DRA and DRB1*0101) on the cell surface (human). The test is described as follows: flow cytometry on HLA-DR-bearing cells, FITC rabbit anti-SpeA. In general terms: In flow cytometry, cells or beads pass a laser one at a time.
The target in test [2] is T1, HLA-DR1 (DR1 alpha/beta; DRA and …). Kind of test: flow cytometry; toxin on cells bearing HLA-DR1.
Test [3] shares this target. Kind of test: flow cytometry on HLA-DR-bearing cells, FITC rabbit anti-TSST-1.
The target is the same in test [4]. The test is described as follows: flow cytometry on human MHC class II expressing cells.

B1: SpeA mutant L42A (ligand)
chain: QQDPDPSQLHRSSLVKNLQNIYFLYEGDPVTHENVKSVDQLASHDLIYNVSGPNYDKLKTELKNQEMATLFKDKNVDIYGVEYYHLCYLCENAERSACIYGGVTNHEGNHLEIPKKIVVKVSIDGIQSLSFDIETNKKMVTAQELDYKVRKYLTDNKQLYTNGPSKYETGYIKFIPKNKESFWFDFFPEPEFTQSKYLMIYKDNETLDSNTSQIEVYLTTK
Regarding B1, in test [1], the binding result is given as “binds”.

B2: staphylococcal enterotoxin D (SED) (ligand)
chain: NENIDSVKEKELHKKSELSSTALNNMKHSYADKNPIIGENKSTGDQFLENTLLYKKFFTDLINFEDLLINFNSKEMAQHFKSKNVDVYPIRYSINCYGGEIDRTACTYGGVTPHEGNKLKERKKIPINLWINGVQKEVSLDKVQTDKKNVTVQELDAQARRYLQKDLKLYNNDTLGGKIQRGKIEFDSSDGSKVSYDLFDVKGDFPEKQLRIYSDNKTLSTEHLHIDIYLYEK
As to B2, the binding result in test [2] is “binds”.

B3: toxic shock syndrome toxin-1 (TSST-1), wild type (ligand)
chain: STNDNIKDLLDWYSSGSDTFTNSEVLDNSLGSMRIKNTDGSISLIIFPSPYYSPAFTKGEKVDLNTKRTKKSQHTSEGTYIHFQISGVTNTEKLPTPIELPLKVKVHGKDSPLKYGPKFDKKQLAISTLDFEIRHQLTQIHGLYRSSDKTGGYWKITMNDGSTYQSDLSKKFEYNTEKPPINIDEIKTIEAEIN
Regarding B3, the binding result in test [3] was “binds”.

B4: staphylococcal enterotoxin A (SEA), wild type (ligand)
chain: SEKSEEINEKDLRKKSELQGTALGNLKQIYYYNEKAKTENKESHDQFLQHTILFKGFFTDHSWYNDLLVDFDSKDIVDKYKGKKVDLYGAYYGYQCAGGTPNKTACMYGGVTLHDNNRLTEEKKVPINLWLDGKQNTVPLETVKTNKKNVTVQELDLQARRYLQEKYNLYNSDVFDGKVQRGLIVFHTSTEPSVNYDLFGAQGQYSNTLLRIYRDNKTINSENMHIDIYLYTS
B4: in test [4], the binding result was “binds”.

The values are drawn from EP2083016A1 (U.S. Medical Research Institute of Infectious Diseases, dated 2009).
